Source: US20210214461A1
Positions count from the first letter of the chain named.

Legend:
[1] = target: pre-existing anti-scFv903 antibodies in human serum H63 (human); assay: competition ADA bridging ELISA
[2] = target: pre-existing anti-scFv903 antibodies in human serum H80 (human); assay: competition ADA bridging ELISA
[3] = target: pre-existing anti-scFv903 antibodies in human serum H81 (human); assay: competition ADA bridging ELISA
[4] = target: pre-existing anti-scFv903 antibodies in human serum H96 (human); assay: competition ADA bridging ELISA
[5] = target: pre-existing anti-scFv903 antibodies in human serum H29 (human); assay: competition ADA bridging ELISA
[6] = target: pre-existing anti-scFv903 antibodies in human serum H14 (human); assay: competition ADA bridging ELISA
[7] = target: pre-existing anti-scFv903 antibodies in human serum H46 (human); assay: competition ADA bridging ELISA
[8] = target: pre-existing anti-scFv903 antibodies in human serum H86 (human); assay: competition ADA bridging ELISA
[9] = target: pre-existing anti-scFv903 antibodies in human serum H8 (human); assay: competition ADA bridging ELISA
[10] = target: pre-existing anti-scFv903 antibodies in human serum H40 (human); assay: competition ADA bridging ELISA
[11] = target: pre-existing anti-scFv903 antibodies in human serum H49 (human); assay: competition ADA bridging ELISA
[12] = target: pre-existing anti-scFv903 antibodies in human serum H26 (human); assay: competition ADA bridging ELISA
[13] = target: pre-existing anti-scFv903 antibodies in human serum H125 (human); assay: competition ADA bridging ELISA
[14] = target: pre-existing anti-scFv903 antibodies in human serum H15 (human); assay: competition ADA bridging ELISA
[15] = target: pre-existing anti-scFv903 antibodies in human serum H20 (human); assay: competition ADA bridging ELISA
[16] = target: pre-existing anti-scFv903 antibodies in human serum H105 (human); assay: competition ADA bridging ELISA
[17] = target: pre-existing anti-scFv903 antibodies in human serum H3 (human); assay: competition ADA bridging ELISA
[18] = target: pre-existing anti-scFv903 antibodies in human serum H53 (human); assay: competition ADA bridging ELISA
[19] = target: pre-existing anti-scFv903 antibodies in human serum H55 (human); assay: competition ADA bridging ELISA
[20] = target: pre-existing anti-scFv903 antibodies in human serum H64 (human); assay: competition ADA bridging ELISA
[21] = target: pre-existing anti-scFv903 antibodies in human serum H116 (human); assay: competition ADA bridging ELISA
[22] = target: pre-existing anti-scFv903 antibodies in human serum H66 (human); assay: competition ADA bridging ELISA
[23] = target: pre-existing anti-scFv903 antibodies in human serum H54 (human); assay: competition ADA bridging ELISA
[24] = target: pre-existing anti-scFv903 antibodies in human serum H56 (human); assay: competition ADA bridging ELISA
[25] = target: pre-existing anti-scFv903 antibodies in human serum H59 (human); assay: competition ADA bridging ELISA
[26] = target: pre-existing anti-scFv903 antibodies in human serum H60 (human); assay: competition ADA bridging ELISA
[27] = target: pre-existing anti-scFv903 antibodies in human serum H19 (human); assay: competition ADA bridging ELISA
[28] = target: pre-existing anti-scFv903 antibodies in human serum H79 (human); assay: competition ADA bridging ELISA
[29] = target: pre-existing anti-scFv903 antibodies in human serum H50 (human); assay: competition ADA bridging ELISA
[30] = target: pre-existing anti-scFv903 antibodies in human serum H21 (human); assay: competition ADA bridging ELISA
[31] = target: pre-existing anti-scFv903 antibodies in human serum H115 (human); assay: competition ADA bridging ELISA
[32] = target: pre-existing anti-scFv903 antibodies in human serum H135 (human); assay: competition ADA bridging ELISA
[33] = target: pre-existing anti-scFv903 antibodies in human serum H76 (human); assay: competition ADA bridging ELISA
[34] = target: pre-existing anti-scFv903 antibodies in human serum H69 (human); assay: competition ADA bridging ELISA
[35] = target: pre-existing anti-scFv903 antibodies in human serum H125 (human); assay: competition ADA bridging ELISA, 100 mcg/ml competitor
[36] = target: pre-existing anti-scFv903 antibodies in human serum H15 (human); assay: as above
[37] = target: pre-existing anti-scFv903 antibodies in human serum H105 (human); assay: as above
[38] = target: pre-existing anti-scFv903 antibodies in human serum H66 (human); assay: as above
[39] = target: pre-existing anti-scFv903 antibodies in human serum H54 (human); assay: as above
[40] = target: pre-existing anti-scFv903 antibodies in human serum H56 (human); assay: as above
[41] = target: pre-existing anti-scFv903 antibodies in human serum H59 (human); assay: as above
[42] = target: pre-existing anti-scFv903 antibodies in human serum H19 (human); assay: as above
[43] = target: pre-existing anti-scFv903 antibodies in human serum H79 (human); assay: as above
[44] = target: pre-existing anti-scFv903 antibodies in human serum H115 (human); assay: as above
[45] = target: pre-existing anti-scFv903 antibodies in human serum H76 (human); assay: as above
[46] = target: pre-existing anti-scFv903 antibodies in human serum H64 (human); assay: as above

B1: scFv 903 (scFv)
scFv: EIVMTQSPSTLSASVGDRVIITCQASEIIHSWLAWYQQKPGKAPKLLIYLASTLASGVPSRFSGSGSGAEFTLTISSLQPDDFATYYCQNVYLASTNGANFGQGTKLTVLGGGGGSGGGGSGGGGSGGGGSEVQLVESGGGLVQPGGSLRLSCTASGFSLTDYYYMTWVRQAPGKGLEWVGFIDPDDDPYYATWAKGRFTISRDTSKNTVYLQMNSLRAEDTAVYYCAGGDHNSGWGLDIWGQGTLVTVSS
- signal change in competition ELISA (% reduction in OD) [1]: -97%
- signal change in competition ELISA (% reduction in OD) [2]: -87%
- signal change in competition ELISA (% reduction in OD) [3]: -95%
- signal change in competition ELISA (% reduction in OD) [4]: -80%
- signal change in competition ELISA (% reduction in OD) [5]: -79%
- signal change in competition ELISA (% reduction in OD) [6]: -97%
- signal change in competition ELISA (% reduction in OD) [7]: -80%
- signal change in competition ELISA (% reduction in OD) [8]: -86%
- signal change in competition ELISA (% reduction in OD) [9]: -87%
- signal change in competition ELISA (% reduction in OD) [10]: -95%
- signal change in competition ELISA (% reduction in OD) [11]: -83%
- signal change in competition ELISA (% reduction in OD) [12]: -92%
- signal change in competition ELISA (% reduction in OD) [13]: -98%
- signal change in competition ELISA (% reduction in OD) [14]: -91%
- signal change in competition ELISA (% reduction in OD) [15]: -92%
- signal change in competition ELISA (% reduction in OD) [16]: -97%
- signal change in competition ELISA (% reduction in OD) [17]: -80%
- signal change in competition ELISA (% reduction in OD) [18]: -32%
- signal change in competition ELISA (% reduction in OD) [19]: -89%
- signal change in competition ELISA (% reduction in OD) [20]: -97%
- signal change in competition ELISA (% reduction in OD) [21]: -98%
- signal change in competition ELISA (% reduction in OD) [22]: -97%
- signal change in competition ELISA (% reduction in OD) [23]: -93%
- signal change in competition ELISA (% reduction in OD) [24]: -24%
- signal change in competition ELISA (% reduction in OD) [25]: -97%
- signal change in competition ELISA (% reduction in OD) [26]: -96%
- signal change in competition ELISA (% reduction in OD) [27]: -90%
- signal change in competition ELISA (% reduction in OD) [28]: -97%
- signal change in competition ELISA (% reduction in OD) [29]: -89%
- signal change in competition ELISA (% reduction in OD) [30]: -85%
- signal change in competition ELISA (% reduction in OD) [31]: -95%
- signal change in competition ELISA (% reduction in OD) [32]: -93%
- signal change in competition ELISA (% reduction in OD) [33]: -97%
- signal change in competition ELISA (% reduction in OD) [34]: -92%
- % reduction in OD [35]: -97.9%
- % change in OD (signal change in competition ELISA) [36]: -91.1%
- % reduction in OD [37]: -97.2%
- % change in OD [38]: -97.2%
- signal change in OD (%) [39]: -93.1%
- % change in OD [40]: -24.4%
- signal change in competition ELISA (% change in OD) [41]: -97%
- signal change in competition ELISA (% change in OD) [42]: -90.3%
- % reduction in OD [43]: -97.1%
- % reduction in OD [44]: -94.7%
- % reduction in OD [45]: -97%

B2: scFv 961 (scFv)
scFv: B1 scFv with L142S, V224T, L246T
- signal change in competition ELISA (% reduction in OD) [1]: -36%
- signal change in competition ELISA (% reduction in OD) [2]: -55%
- signal change in competition ELISA (% reduction in OD) [3]: -9%
- signal change in competition ELISA (% reduction in OD) [4]: -78%
- signal change in competition ELISA (% reduction in OD) [5]: -22%
- signal change in competition ELISA (% reduction in OD) [7]: -40%
- signal change in competition ELISA (% reduction in OD) [8]: -68%
- signal change in competition ELISA (% reduction in OD) [9]: -89%
- signal change in competition ELISA (% reduction in OD) [10]: -2%
- signal change in competition ELISA (% reduction in OD) [11]: -9%
- signal change in competition ELISA (% reduction in OD) [12]: 0%
- signal change in competition ELISA (% reduction in OD) [13]: 3%
- signal change in competition ELISA (% reduction in OD) [15]: -23%
- signal change in competition ELISA (% reduction in OD) [16]: 7%
- signal change in competition ELISA (% reduction in OD) [17]: -2%
- signal change in competition ELISA (% reduction in OD) [18]: -31%
- signal change in competition ELISA (% reduction in OD) [19]: -15%
- signal change in competition ELISA (% reduction in OD) [20]: -14%
- signal change in competition ELISA (% reduction in OD) [21]: -33%
- signal change in competition ELISA (% reduction in OD) [23]: -69%
- signal change in competition ELISA (% reduction in OD) [24]: -24%
- signal change in competition ELISA (% reduction in OD) [25]: -67%
- signal change in competition ELISA (% reduction in OD) [26]: -1%
- signal change in competition ELISA (% reduction in OD) [27]: -64%
- signal change in competition ELISA (% reduction in OD) [28]: -74%
- signal change in competition ELISA (% reduction in OD) [29]: -73%
- signal change in competition ELISA (% reduction in OD) [30]: -81%
- signal change in competition ELISA (% reduction in OD) [31]: -31%
- signal change in competition ELISA (% reduction in OD) [32]: -75%
- signal change in competition ELISA (% reduction in OD) [33]: -36%
- signal change in competition ELISA (% reduction in OD) [34]: -6%
- % reduction in OD [35]: 2.7%
- % reduction in OD [37]: 7.4%
- % reduction in OD [46]: -13.7%
- % reduction in OD [39]: -69.4%
- % reduction in OD [40]: -23.8%
- % reduction in OD [41]: -67.3%
- % reduction in OD [42]: -63.7%
- % reduction in OD [43]: -74.1%
- % reduction in OD [44]: -31.4%
- % reduction in OD [45]: -36.4%
